Experimental data: the DeepSol protein solubility set

Test: soluble on expression in E. coli; label from the status in PepcDB or PDB records
In the case of “MGSDKIHHHHHHMKRRILFIHNNLGGGGAEGALIEVLNHLDYNRYDVTLFLLYRTGDFIDRVPPQVHFKHEQFGRFFPGYKGKIAIRCGLRNMLLRCCAKRVFANEKYDTIVSFMESAPAKFHSYILDKGKRNITWVHCDLLNNHYTTGFFLTLKQEQKFYSRMDDVIFVSEDAKKNFSKLFGIDKGRVIYNIIDQRAICKRSKAVSSMPRHRTFTFVNVGSLKEIKRQDRIIETAALLKARGYDADFWLIGKGIWEERLKAQATALNVSDSVHFLGFQSNPYPYVAAADVFLMTSDSEGFPLVVAEAMCLGKAVISTRITGPMEMLGNGRYGILTGFSPEEIANSAISLIEDPKLLSSYQHLAYERSISYFDVNGVMTQIHDVIGN”, the “soluble on expression in E. coli” value is reported as “not soluble”. With “MGSDKIHHHHHHMKSLIHCLFLIPLFFVQAHAEVTITLPDSAEPLLLNGKDITSHQLISQNGPQQLVFNARASYREFGQQKRFVSETLIVTFSGENNHYRVSLPKISSPKSAEKFNDVPQIGLTDTQGNKVAYKIDKLLKDGIQIGRNYSEEIKAYNIGQGVAAIAINQPVQMAPSTSSSASSGAASPAATSTALAAQQTTAPQGAQPVGQPTSQPNTQPVSQTGTPRRDQINVGQMLDFWYEQADEATREAFKKRIGLIEQAQRDGH” the “soluble on expression in E. coli” value was “not soluble”. With “MGSDKIHHHHHHMKSNLFMKRKLEIGLSLLIGTSVFGGCNNDLAPIRQSQTFPPNLNAPTVFESFSPDSGGVKTQLIIRGQNFGTDTAYLKVTVNNKRAAIVGVADDVIYAIVPARADTGYVRLFVGKDDNVEEYASQTKFIYQFKRNVTTLMGRQGQSGRDDGPYAECKLQRPWFALADKDGALFFIDEGRGQNKNGALRRAQEGWVETLVQNSSGPFQSPTCLAFNPKQDTLYISNMSYGSDIKTSFNILYVTREGGFMDVKGLCKFEKAETQGLAVHPQTGEIFFCNKSGGYIYRFNGPDYEDYEPLFQINRADKIDTRMVFNPEGTALFVVVCNRHCIYKVPYNALTHTFGEPELFAGGWDESGYVNGSGVTARFDNPRQPAFDQDGNMFVPEYGRHTIRKITPTGEVSLYAGLPGQAGFTDGLPEKARFNKPECVTVYLDNSLYVADRDNHLIRRVTVE” the “soluble on expression in E. coli” value was “not soluble”. With “MGSDKIHHHHHHMKTIRIGSGAGYAGDRIEPAVELAQKGDIQYLVFECLAERTIAIGQKQKQQNPEKGYNELLADRMHAVLPLCLEKGIKIITDMGSANPVAAGQRVLEIAKELGADKLKIAIVTGDDVHSVLIAQDSKLDEIGLPISRCGKDILSANAYLGADALVEALRQGADVIIAGRVSDPSLFLSAMMYEFDWAADDWDRLGKGTCLGHLLECAGQITGGYYADPGVKDIPNLDRLGFPIAEITEDGSAVITKVEGSGGCVCVDTCKEQLLYEIHRPDSYITPDVIADFSHVTFTQDGENRVRVQGATGREKTGTLKVSVGYQDGFIGEGEISYAGPGAVARGRLALDIVKGRFALCQLDLQEVRYDLIGVDALHGAQRSQSSEPYEVRARVAARCTSRAQAVKVGNEVETLYTNGPAGGGGVNKSVKEILAMDSTLLSRACVTPAVDYLEIK” the “soluble on expression in E. coli” value was “not soluble”. In the case of “MGSDKIHHHHHHMKTQQERQPGKIATKFNQEKTREGKKLKIAVVAQDSQYPSTIQRFLAEADKSYPLISLIGGVQQVAAVAEQEQPDLLMLEGQYFSSMELETLNRVTSRFPDVGVVMLCPAQPPELLIEVMRAGVREVLPTPLTRHGVIDAVERFQQRIALSRMPMHECKVLAFIPCKGGSGATFLATNIAYALAAQENKRVALFDFNLQFGDASLFVQDGPPATSIADVARQIQRLDGSFLNSSMIQVLPNFGMLAAPESPEKAAEIRSEHINPLFQVAMKHYDFVILDVGRELDAISIQALDRADLIFPVLQQTLPSIRDARRMSAAFAALNYPDEKIRLIVNRYKKNADITLDDIESTLNLKIFKVVPNDYAVVTGSVNQGIPATKLAPRSPVAKSLQEIAHELCRGAGQGNLLRKLFAF”, the “soluble on expression in E. coli” value is reported as “not soluble”. In the case of “MGSDKIHHHHHHMKTRIVQKQFKRKETKYIVDKKTFELLEKELRQYMMADEFATSTITNIYFDNEDFDMIQDSLAKKNGREKIRMRVYDAIPSESSQAFLEIKKKENKIGYKYRLTSNPVSVANYIENGVIDSTIKDDKVNSELEMLRERYGTIKPKMYIYYDRVSYKGIEDKKVRLTIDKNLLYRDYDVDAMEGKFGKNLLDPTKVIMEVKVPEERPDWLVALLEKYQIEKQSFSKYGNAYKLAHNITGEEVSQHAVV”, the “soluble on expression in E. coli” value is reported as “not soluble”. In the case of “MGSDKIHHHHHHMKTYDWIVVGGGMTGAVLAYELVKTGFSVLLLEKDAVAENATRYSYGGLAYWSGSTPLTRQLCQEARDRYNILPQELDADIELRELDLLLTIPADSDPQVTAELYAQCAVPPCLLSVPEACELELLLNPGAIAGALTVKHGHIHPQKTVQAYIQAFLRAGGELQIGEVSQVTSGGVKTTTVTYHSANVVVCAGGLSRRLLKSVGVSIKVYFTHAEIIETPPVDLRLNTLVMPANLQRFKLESTSTEVDELWNKPGNQLAPPILDAGAIQFLDGSLRLGQISRVLTDVDAYINHEESEDWLRQSISHILPILGNLPGNWHHCLVAFSSNSLPVIGVISELPGVHIFSGFSNPLVLIPPLAQRFAKFLSGTEDDIIPQFSDFLILTGS”, the “soluble on expression in E. coli” value is reported as “not soluble”. With “MGSDKIHHHHHHMKVKYIAAILLSTQLVYTACDDMGFLQIKPDSLELTDDRIKTVDDLENLLLGAYNGIRSSGFWGGRTLRGFDVIADDGVADVATFEWVQMSAHTMNLVNAVGRDTWTATYNAINMANQVAFSDLGESILASDPQKEAQFKAEASFIRALGYFHLVRAFGLPYAEETKDIAEMGVPLRLRGVMDRATAFEVVQRSTVSEVYSQIISDLEYAIGNLPGENKVESGRATVDGAKALLAKVYFYKHDFGNAAKYAEQVINTQKYDLDEDLTAKFGRAEKKTVTQEIVAMIPSASLIEDSWGGLRDYRTNGLALPTSRPSNELIAAYDQQNDNRFKTFFKNIDGSWYTLKFDYEYMDGIIIGYNELLLLYAESLAESNGNMNQALNALQKIEKRAYGKANTTTTDRASFIKAVQKERRLEIALQGERLFELKRIKQSVRGEAWDSHKVMFQIPDVEQNGNPDVNMN” the “soluble on expression in E. coli” value was “not soluble”. For “MGSDKIHHHHHHMKVSADVRAMIERRKKNYSLEAPFYTSDEIFALDMEAIFRQHWIQVAVEPDVPEPGDYITVDIGNDSILIVRDDDMQVRAFHNVCRHRGARLCNTDKGSLGNIVCPYHSWTYNLNGDLMFAEHMGEQFDRCKHSLKAVHVENLAGLIFICLADNPPADFAVVRAAMEPYMLPHALASCKIAASIDIIEEGNWKLTMENNRECYHCVANHPELTISLYEYGFGYQRTPANEEGMAAFEETVARRTAQWEAMQLPSAEIERLADLVTGFRTQRLPLDRDGESQTLDAKVASKKLLGGFEQADLGGLSFWTQPNSWHHFMSDHIVSFSVIPLSAGKTLVRTKWLVHKDAREGIDYDVDNLTAVWRATNDQDRALVEYSQRGATSSAYEPGPYSPFTEGLVEKFCEWYIGRMAQYSNAPQTHDAGDTAPASHGEKVVSFKR”, the “soluble on expression in E. coli” value was “not soluble”. In the case of “MGSDKIHHHHHHMKVVSLLTDFGDFYPGVMKGVILSLAPEARIVDITHSVEPQNILQGAFLLYHSFRYFRNAVHVAVVDPGVGSERRALVIEGKNHFFVGPDNGILYPSAVEDGIKAAYSIKEEISELVGELSSTFHGRDIFAPAAAMVVRGDYTYFEEINKEELEKLELFDCSIQGNKVRCRVVYVDRFGNVVTNLREVKGKGFYFRGVEFPFVKTYSDVDVGKPLSLIGSFGTLELSVREGSAAEMLGIKRGGGWIELEVL”, the “soluble on expression in E. coli” value is reported as “not soluble”. With “MGSDKIHHHHHHMKWRGYLTPVTENYLHAYGVGYISYVLARKFHVDSVKAFVTGTLHDLGGAVPADERVTVAESIGISLNDEEREVPLLVHAKLGKYFAQTLFDITDEDMLNAILFHTTCIDRASDLVKIVFLADKIRWDRNGTPPYLDGLLAALEISLDDGCSYFLKWLWNSDLYIVHPYLSRSYGAYVRQQQYNPISLQDFSVLQGNLNENLVKKYYLHDIYQEFHRTFYHAHLASVLASKHSVNTEEAYVTSALVNMTNTIKDDELETIASVLNLNVQVPIRPQLTSILARDEYGITSLEMLKTLKSFPQIPSNHNSLLWVVVMSWICQKSIKCEVEDE” the “soluble on expression in E. coli” value was “not soluble”. In the case of “MGSDKIHHHHHHMKYEKIAFFRFFGRLNDFFRNSERIKTHRFTGFQTVKDRIEALGVPHVEVSLITLNGKPVGFDHMVEDGELFFVYPEFQNIEIPEDWLVTPRYIGEPRFVLDIHLGKLARLLRMLGFEAVFGEESDEKLCWMAVKKKAILLSRDTGLLKRKELVFGYYVRNTDPKEQLVEVVERYDLKKWMKPFTRCIECGVELEEVPKEAVKNRVPPKVYGFFNEFARCPVCGRIYWKGSHYDHMVEFIKSNINKG”, the “soluble on expression in E. coli” value is reported as “not soluble”. In the case of “MGSDKIHHHHHHMKYILVTGGVISGIGKGVIASSVGTILKSCGLHVTSIKIDPYINIDAGTFSPYEHGEVFVLDDGGEVDLDLGNYERFLDIRLTKDNNLTTGKIYQYVINKERKGDYLGKTVQVVPHITDAIQEWVMRQALIPVDEDGLEPQVCVIELGGTVGDIESMPFIEAFRQFQFKVKRENFCNIHVSLVPQPSSTGEQKTKPTQNSVRELRGLGLSPDLVVCRCSNPLDTSVKEKISMFCHVEPEQVICVHDVSSIYRVPLLLEEQGVVDYFLRRLDLPIERQSRKMLMKWKEMADRYDRLLETCSIALVGKYTKFSDSYASVIKALEHSALAINHKLEIKYIDSTDLEPSTLQEEPVRYHEAWQKLCSAHGVLVPGGFGVRGTEGKIQAIAWARKQKKPFLGVCLGMQLAVVEFSRNVLGWQDANSTEFDPKTSHPVVIDMPEHNPGQMGGTMRLGKRRTLFQTKNSVMRKLYGDTDYLEERHRHRFEVNPVLKKCLEEQGLKFVGQDVEGERMEIVELEDHPFFVGVQYHPEFLSRPIKPSPPYFGLLLASVGRLPHYLQKGCRLSPRDTYSDRSGSSSPDSEITELKFPSISQD”, the “soluble on expression in E. coli” value is reported as “not soluble”. In the case of “MGSDKIHHHHHHMKYLKQYMIIGAVTMITSCSDFLDTAPLDALSPATTWKTEDDAQKFAIGCYGGNNYDTSSWEDGGNILYLDCGSDFGYNNFEWENYKTIGNGTMTPSGAVASFYDFSVIRRCNTFLEKVKEIPFSNEQTKNDLIGQVRTIRAYRYFVMNWWYGGVPVIDNYNSADEAKVPRKSEEEVKNYVNTELDTAIGELNASPSERGRIAKGAAMAIRMRSALYYGDYVKAKEMAEAIMNLKQYDLEPDYSNLFKVAGQDSKEIILAVQYVNSTLELGTIGQMYNNGDGGWSSIVPTQNLVDTYEMADGLTKEESGSYDPNHPFAGRDPRMAMTIIYPGMDWNGTVVNTLDKTINGKDNANYPPSANNASKTALTWRKYLDEQYANGIWNTNACPIVIRYAEVLLTYAEAVNELSGPSADVYDKLDLIRGRVGMPKVDREKYASKETLRRLIRRERGVELAGEGVRRADILRWKDDNGKMVAETVLNGVLERVVGTVNYAETDPTKRAEIDTNAPATDKKIEDRVFKVHNRYNPIPQGAIDNNPNLEQNPGY”, the “soluble on expression in E. coli” value is reported as “not soluble”. With “MGSDKIHHHHHHMLAGKTASEIFDNIRHLVQSGGLQPGEVLPPVRELASQLAVNRNTVAAAYKRLVTSGLAVSQGRNGTAIKARDTLPALEGGDPTTPLNDISSGNPDPARLPDLPRYLGQIARTPRLYGDAPIEPRLGQWAEAWFAREIAVPFAVNLASGAIDALERLLCALLLPGDGVVVEDPCFLSSINMVRYAGFTPCPVAVDAEGMDPDGLEEALRNGARAVILTPRAHNPTGCSLTETRAHALREVLARYPQVLAIVDDHFALLSATPWHSPLPASTQRWALVRSMSKTLGPDLRLAFIASDAATSAALRLRLNAGSQWVSHLLQDLTLACLTDEAFIASMTETRRHYRQQNEKLAAALARHGFSHATPGDGLNFWLPLPAASQPYALRLARAGWLVREGEVFGIRTPSHGLRLSLGRLSDAEISRLAADIAQALDAP” the “soluble on expression in E. coli” value was “not soluble”. In the case of “MGSDKIHHHHHHMLANLNQAMDYIEEHLTEEVSFDELAKKTGISVYHFKRTFSFITGMSLAEYIKKRPLAEANLALLAGEKVTDVAFKYGYQSIEGFSRAFRDWSGQAPSEVMKTQIQKTFPKFSFYIDIKGGQSMDVKLIEKPAFQIVGVSQKVPLQYQGENQAIMELAQRITPQQRAEMHTFDDIYPHQVVNASFDFQEGRTTEGGEMTHMIGFATSQENTYEDLEQLSVPAHTWAVFPNEGPFPQTLQETWAKIFSEWLPSSGYQVVAAPEISFTQYQGPAEAKYSEIWLAVTATK”, the “soluble on expression in E. coli” value is reported as “not soluble”.
